This note sets out measurements from US20240132859A1, “MODIFIED DEHALOGENASE WITH EXTENDED SURFACE LOOP REGIONS” (Promega Corporation, priority 2022, published 2024).

In data set [1] the test system is HeLa cells expressing HiBiT-tagged GAPDH. As to the kind of experiment: Complementation-based chimeras transfected into genome edited HeLa cells expressing HiBiT-tagged GAPDH: expression, brightness, BRET. In kind it is cell-based. How it is done: FIG. 23 A-G. Characterization of transiently expressed complementation-based chimeras incorporating flexible linkers and LgBiT+4 circularly permuted at two alternative sites (i.e., 67/68 or 49/50). Constructs encoding the chimeras were transfected into genome edited HeLa cells expressing HiBiT-tagged GAPDH. Cells were evaluated for expression, brightness, and efficiency of intramolecular BRET to a bound TMR ligand. (A) Structure of the HALOTAG-cpLGBIT chimeras. (B) Expression levels. Lysates from cells labeled with 1 μM HaloTag-TMR ligand were resolved on SDS-PAGE and scanned on a fluorescent imager. Expression levels quantitated using Image J software were normalized to the expression of HaloTag178-cpLgBIT+4 67/68-179. (C) Total luminescence from cells treated with 20 μM fluorofurimazine. (D) Intramolecular BRET efficiencies for cells treated with 500 nM HaloTag-TMR ligand.
A general note: With HiBiT, luminescence reflects the tagged protein that the partner subunit can reach.

The nature of data set [2]: Total luminescence (brightness) of purified fusions and chimeras treated with fluorofurimazine. In kind it is biochemical. The following applies: 6 nM chimeras complemented with 60 nM VS-HiBiT; compared with HT-178(L1-3)cpLgBiT+4 67/68-179. From the text:
(§1) FIG. 9A-D. Characteristics of HaloTag-NLuc fusions and chimeras generated by insertion of circularly-permuted NanoLuc (cpNLuc), circularly-permuted thermostable NanoLuc (cptsNLuc), and circularly-permuted thermostable NanoLuc with a point mutation, F164C (cptsNLuc(F164C)) into loops 165 and 180. Fusion and chimeras were expressed in E. coli, purified, and compared for binding kinetics of a chloroalkane-TMR ligand, brightness of luminescence, and efficiency of intramolecular BRET to a bound TMR ligand. (A) Chimera structures (B) Binding kinetics of 2.5 nM chloroalkane-TMR to 20 nM fusions, and chimeras monitored via fluorescent polarization (C) Total luminescence for 6 nM fusions, and chimeras treated with 20 μM fluorofurimazine (D) Intramolecular BRET efficiencies for 6 nM fusions, and chimeras that were labeled with 5-fold molar excess of chloroalkane-TMR and treated with 20 μM fluorofurimazine.
(§2) FIG. 13A-B. Luminescence and BRET efficiencies of HaloTag-LgBiT fusions, and chimeras generated by insertion of LgBiT and circularly-permuted LgBiT (cpLgBiT) into loop 180. […]
(§3) FIG. 19 A-E. Biochemical characterization of chimeras generated by inserting a circularly permuted NanoLuc to HaloTag's loops 180 and 194/195. […] (C) Binding kinetics of 2.5 nM HaloTag-TMR ligand to 20 nM chimeras monitored via fluorescent polarization. […]

The nature of data set [3]: Intramolecular BRET efficiency of purified fusions and chimeras to a bound TMR ligand. In kind it is biochemical. Conditions: 6 nM chimeras complemented with 60 nM VS-HiBiT; compared with HT-178(L1-3)cpLgBiT+4 67/68-179.
From the text: as §1, §2, §3
In general terms: BRET reads energy transfer from a luciferase to a nearby fluorophore.

In a further data set the test system is VS-HiBiT peptide. As to the kind of experiment: Binding affinity of complementation-based chimeras to VS-HiBiT peptide. The following applies: compared with HT-178(L1-3)cpLgBiT+4 67/68-179. How it is done:
FIG. 22 A-I. Biochemical characterization of complementation-based chimeras incorporating flexible linkers and LgBiT+4 circularly permuted at two alternative sites (i.e., 67/68 or 49/50). (A) Structure of the HALOTAG-cpLGBIT chimeras. (B-C) Influence of flexible linkers on binding kinetics of 2.5 nM HaloTag-TMR ligand to 20 nM chimeras, which were complemented with 200 nM VS-HiBiT. (C-D) Influence of flexible linkers on binding affinity to a VS-HiBiT peptide. (E-F) Total luminescence for 6 nM chimeras complemented with 60 nM VS-HiBiT and treated with 20 μM fluorofurimazine. (G-I) Intramolecular BRET efficiencies for 6 nM chimeras complemented with 60 nM VS-HiBiT and covalently labeled with HaloTag-TMR ligand.
FIG. 25 A-E. Influence of additional LgTrip mutations on biochemical properties of the lead complementation-based chimera HaloTag178(L1-3)-cpLgBiT+4-179. Annotations of the additional mutations are based on a full length non disrupted NanoLuc protein (A) Structure of the HALOTAG-cpLGBIT chimeras (B) Influence of mutations on binding affinities to the VS-HiBiT peptide. (C) Influence of mutations on brightness and efficiency of intramolecular BRET to a bound TMR ligand for 6 nM chimeras complemented with 60 nM VS-HiBiT. (D-E) Binding kinetics of 2.5 nM HaloTag-TMR ligand to 20 nM or 80 nM chimeras, which were complemented with 200 nM or 800 nM VS-HiBiT, respectively.
FIG. 26 A-C. […]

[4] abbreviates: mammalian cells, among the tested HALOTAG-cpLGBIT chimeras.

B1: HaloTag-178-(L1-3)cpLgBiT+4 67/68 (E4D, Q42M, M106K, T144D)-179: SEQ ID NO: 93 (protein)
chain: GSEIGTGFPFDPHYVEVLGERMHYVDVGPRDGTPVLFLHGNPTSSYVWRNIIPHVAPTHRCIAPDLIGMGKSDKPDLGYFFDDHVRFMDAFIEALGLEEVVLVIHDWGSALGFHWAKRNPERVKGIAFMEFIRPIPTWDEWPEFARETFQAFRTTDVGRKLIIDQNVFIEGTLPMGVVGGSSADQMAQIEEVFKVVYPVDDHHFKVILPYGTLVIDGVTPNKLNYFGRPYEGIAVFDGKKITVTGTLWNGNKIIDERLIDPDGSMLFRVTINSGGTGGSGGTGGSMVFTLDDFVGDWEQTAAYNLDQVLEQGGVSSLLQNLAVSVTPIMRIVRSGENALKIDIHVIIPYEGLRPLTEVEMDHYREPFLNPVDREPLWRFPNELPIAGEPANIVALVEEYMDWLHQSPVPKLLFWGTPGVLIPPAEAARLAKSLPNCKAVDIGPGLNLLQEDNPDLIGSEIARWLSTLEISG
With B1, the expression entry in data set [1] (genome-edited HeLa cells expressing HiBiT-tagged-GAPDH) is given as “highest”. For the same molecule, in data set [1] (setting [4]), the BRET efficiency result is “highest” and the brightness entry is “highest”.

B2: HaloTag-178-(L1-3)cpLgBiT+4 67/68 (E4D, Q42M, M106K, T144D, R112H, V127T, K123E)- 179: SEQ ID NO: 106 (protein)
chain: GSEIGTGFPFDPHYVEVLGERMHYVDVGPRDGTPVLFLHGNPTSSYVWRNIIPHVAPTHRCIAPDLIGMGKSDKPDLGYFFDDHVRFMDAFIEALGLEEVVLVIHDWGSALGFHWAKRNPERVKGIAFMEFIRPIPTWDEWPEFARETFQAFRTTDVGRKLIIDQNVFIEGTLPMGVVGGSSADQMAQIEEVFKVVYPVDDHHFKVILPYGTLVIDGVTPNKLNYFGHPYEGIAVFDGEKITTTGTLWNGNKIIDERLIDPDGSMLFRVTINSGGTGGSGGTGGSMVFTLDDFVGDWEQTAAYNLDQVLEQGGVSSLLQNLAVSVTPIMRIVRSGENALKIDIHVIIPYEGLRPLTEVEMDHYREPFLNPVDREPLWRFPNELPIAGEPANIVALVEEYMDWLHQSPVPKLLFWGTPGVLIPPAEAARLAKSLPNCKAVDIGPGLNLLQEDNPDLIGSEIARWLSTLEISG
In the case of B2, the brightness result in data set [2] is on record as “similar”. Besides, the BRET efficiency result in data set [3] is “similar”. For the same molecule, the “binding affinity to VS-HiBiT” value with VS-HiBiT peptide was “significantly higher affinity”.
